1 molecule from article PMC3143299 (Journal of molecular biology, 2011) can be followed below.

The target of series [1] is actin purified from rabbit skeletal muscle (F-actin) (rabbit, UniProt P68135 1-377). Put plainly: co-sedimentation.
Series [2] concerns the molecule itself. Put plainly: cross-linking.

Where “and” joins values, the source holds several entries; their conditions need not be identical. Equal values may be shown once.

B1: recombinant full-length human FRG1 (His-tagged) (natural protein)
chain: not shown
Take B1: the dissociation constant (Kd) in series [1] came out at 160 ± 30 nM. Moreover, the “stoichiometry N” value was 2 FRG1 per actin monomer in series [1]; 2 and 4 in series [2].

As usually defined, the Kd is the concentration at which binding is half-saturated. Low readings indicate tighter binding, high ones weaker binding. As a reminder, the stoichiometry N is a count of units in the complex or per binding partner.
